The values below come from the supplement of paper PMC7125110.

Sequences and labels used below:
B1: glmS ribozyme (parent)
chain: AUAAAAGCGCCAGAACUACAGAAAUGUAGUUGACGAGGAGGAGGUUUAUCGAAUUUUCGGCGGAUGCCUCCAAA

± gives the standard error. This sample holds only a part of the variants without activity. Some results are limits rather than exact numbers.

The first data set covers variants of B1. As to the kind of experiment: self-cleavage kobs at 2500 uM GlcN6P; higher = faster cleavage; RNA array. As to conditions: with glucosamine-6-phosphate. Summed up: (§1)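 Using a hybridised Cy3 probe at 37 °C, barcoded ribozyme variants transcribed in situ by E. coli RNA polymerase on sequenced MiSeq chips were monitored across tiles imaged over ~14 h. The flow contained glucosamine-6-phosphate from 40 μM to 10 mM in HEPES/KCl/Mg(OAc)2 buffer. Signals were normalised to baseline and to non-cleaving reference variants before per-tile medians were fit to one- or two-exponential decays to yield kobs. Weighted Michaelis–Menten fits across concentrations gave kcat and KM.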
AUAAAAGCGCCAGAACUACAGAAAUGUAGUUGACGAGGAGGAGGUUGAUCGAAUUUUAGGCGGAUGCAUCCAAA [U47G C58A C68A]: the “self-cleavage kobs at 2500 uM GlcN6P” value was determined as 0.000116 ± 2.9e-05 s⁻¹.

Take AUAAAAGCGCCAGAACUACAGAAAUGUAGUUCACAAGGAGGUGGUUUAUCGAAUUUUCGGCGGAUGCCUCCAAA [G32C G35A A42U]: the “self-cleavage kobs at 2500 uM GlcN6P” value was below 1e-05 s⁻¹.

On to AUAAAAGCGUCAAAACUACAGAAAUGUAGUUGACGAGGAGGAGGUUUAUCGUAUUUUCGGCGGAUGCCGCCAAA [C10U G13A A52U U69G], for which the “self-cleavage kobs at 2500 uM GlcN6P” value was 4.08e-05 ± 1.4e-05 s⁻¹.

Regarding AUAAAAGAGCUAGAACUACAGAAAUGUAGUUGACGAGGAGGAGGUUUUUCGAAUUAUCGGCGGAUGCCUCCAAA [C8A C11U A48U U56A], the “self-cleavage kobs at 2500 uM GlcN6P” value was below 1e-05 s⁻¹.

For AUAAAAGCGCCAGAAAUACAGAAAUGUAGUUGACGAGGAGAUGGUUUAUCGAAUUUUCGGCGGAUGCCUCCAAA [C16A G41A A42U], the “self-cleavage kobs at 2500 uM GlcN6P” value is below 1e-05 s⁻¹.

Turning to AUAAAAGCGCCAGAGCUACAGAAAUGUAGUUGACGAGGCGGAGGAUUAUCGAAUUCUCGGCGGAUGCCUCCAAA [A15G A39C U45A U56C], the “self-cleavage kobs at 2500 uM GlcN6P” value is 0.000239 ± 5.6e-05 s⁻¹.

In the case of AUAAAAGCGCCAGAACUACAGAAAUGUAGUUGACGAGUAGGAGGUUUGUCGAAUCUUCGGCGGAUGGCUCCAAA [G38U A48G U55C C67G], the “self-cleavage kobs at 2500 uM GlcN6P” value was below 1e-05 s⁻¹.

For the variant AUAAAUGCGCCAGAACUACAGAAAUGUAGUUGACGAGGAGGAAGUUUAUCCAAUUUUCGGCGGAUGCCUCCAAA [A6U G43A G51C], the “self-cleavage kobs at 2500 uM GlcN6P” value was below 1e-05 s⁻¹.

On to AUAAAACCGCCAGAACUACAGAAAUGUAGUUGACGAGAAGGAGGUUUACCGACUUUUCGGAGGAUGCCUCCAAA [G7C G38A U49C A53C C61A], for which the “self-cleavage kobs at 2500 uM GlcN6P” value was below 1e-05 s⁻¹.

As for AUAAAAGCGCCAGAACUACAGAAAUGUAGUUGACGAGGAGGAGGUUUAUCGAAUUUUCGGCGGAUGCCCUGAAA [U69C C70U C71G], the “self-cleavage kobs at 2500 uM GlcN6P” value stood at 3.82e-05 ± 1.3e-05 s⁻¹.

Turning to AUAAAAGCGUCAGAAAUACAGAAAUGUAGUUGACGAGGAGGAGGCUUAUCGAAUUUUCGGCGGAUGCCUCCAAA [C10U C16A U45C], the “self-cleavage kobs at 2500 uM GlcN6P” value was below 1e-05 s⁻¹.

As for AUAAAAGCGCCAGAACUACAGAAAUGUAGUUAACGAGGAGCAGGUUUAUCGAAUUUUCGGCGGAUGCUUCCAAA [G32A G41C C68U], the “self-cleavage kobs at 2500 uM GlcN6P” value was below 1e-05 s⁻¹.

Take AUAAAAGCGCUAGAACUACAGAAAUGUAAUUGACGAGGAGGAGGUUUAUCGAAUUUUCGGCGGAUGCCUACAAA [C11U G29A C70A]: the “self-cleavage kobs at 2500 uM GlcN6P” value came out at 0.000404 ± 0.00014 s⁻¹.

Turning to AUAAAGGCGCCAGCACUACAGAAAUGUAGUUGACGAGCAGGAGGUUUAUCGAAUUUUCGGCGGAUGCCUCCAAA [A6G A14C G38C], the “self-cleavage kobs at 2500 uM GlcN6P” value is below 1e-05 s⁻¹.

Turning to AUAAAAUCGCCAGAACUACAGAAAUGUAGUUGACGAGGAGGAGGUUUAUCGAAUUGUUGGCGGAUGCCUCCAAA [G7U U56G C58U], the “self-cleavage kobs at 2500 uM GlcN6P” value was below 1e-05 s⁻¹.

With AUAAAAGCUCCAGAACUACAGAAAUGUAGUUGACGAGGAGGAGGUUGAUCGAAUUUUCGGCGGAUGCUUCCAAA [G9U U47G C68U], the “self-cleavage kobs at 2500 uM GlcN6P” value was below 1e-05 s⁻¹.

Consider AUAAAAGCGCCUUAACUACAGAAAUGUAGUUGGCGAGGUGGAGGUUUUUCGAAUUUUCGGCGGAUGCCUCCAAA [A12U G13U A33G A39U A48U], for which the “self-cleavage kobs at 2500 uM GlcN6P” value is below 1e-05 s⁻¹.

Take AUAAAAGCGCCAGAACUACAGAAAUGUAGUUCACCAGGAGGACGUUUAUCGAAUUUUUGGCGGAUGCCCCCAAA [G32C G35C G43C C58U U69C]: the “self-cleavage kobs at 2500 uM GlcN6P” value is below 1e-05 s⁻¹.

As to AUAAAAGCUCCAGAACUACAGAAAUGUAGUGGACGAGGAGGAGGUUUAUCGAAUUUUCGGCGGAUUCCUCUAAA [G9U U31G G66U C71U], the “self-cleavage kobs at 2500 uM GlcN6P” value was below 1e-05 s⁻¹.

As for AUAAAAGCUCCAGAACUACAGAAAUGUAGUUGACCAGGAGGUGGUUUAUCGAAUUUUCGGCGGAUGCCUCCAAA [G9U G35C A42U], the “self-cleavage kobs at 2500 uM GlcN6P” value is below 1e-05 s⁻¹.

Consider AUAAAAGCGCCAGAGCUACAGAAAUGUAGUGUACGAGGAGGAGGAUUAUCGAAUUUUCGGCGGAUGCCUCCAAA [A15G U31G G32U U45A], for which the “self-cleavage kobs at 2500 uM GlcN6P” value was 0.000424 ± 0.00012 s⁻¹.

Take AUAAAAGCGCCAGAACUACAGAAAUGUAGUUGAUGAGUAGGUGGUUUAUCGAAUUUUCGGCGUAUGCCUCCAAA [C34U G38U A42U G63U]: the “self-cleavage kobs at 2500 uM GlcN6P” value was below 1e-05 s⁻¹.

For the variant AUAAAAGCUCCAGAACUACAGAAAUGUAAUUGUCGAGGAGGAGGUUUAUCGAAUUUUCGGCGGAUGCCUCCAAA [G9U G29A A33U], the “self-cleavage kobs at 2500 uM GlcN6P” value was below 1e-05 s⁻¹.

Regarding AUAAAAGCGCAAGAACUACAGAAAUGUAGUUGACGAGGAGGUAGUUUAUCGAAUUUUCGGCGGAUGCCUCCAAA [C11A A42U G43A], the “self-cleavage kobs at 2500 uM GlcN6P” value is below 1e-05 s⁻¹.

As to AUAAAAGCGUCAGAACUACAGAAAUGUAGUUUACGAGGAGCAGGUUUAUCGAAUGUUCGGCGGAUGCCUCCAAA [C10U G32U G41C U55G], the “self-cleavage kobs at 2500 uM GlcN6P” value is below 1e-05 s⁻¹.

On to AUAAAAGCGCCAGAAUUACAGAAAUGUAGUUGACGAGGAGGAGGUUUAUCGAAUUUUUGGCGGAUGCCGCCAAA [C16U C58U U69G], for which the “self-cleavage kobs at 2500 uM GlcN6P” value amounted to 7.44e-05 ± 2.1e-05 s⁻¹.

AUAAAAGCGCCAGAACUACAGAAAUGUAGUUGACGUGGAGGGGGUUUAUCGAAUUUUCGUCGGAUGCCUACAAA [A36U A42G G60U C70A]: the “self-cleavage kobs at 2500 uM GlcN6P” value was below 1e-05 s⁻¹.

For the variant AUAAAAGCGCUAGAACUACAGAAAUGUAGUGGACGAGGAGGAGGUUUAUCGACUUUUCGGCGGAUGCCUCCAAA [C11U U31G A53C], the “self-cleavage kobs at 2500 uM GlcN6P” value is 0.000433 ± 0.0001 s⁻¹.

For AUAAAAGCGCCAGAACUACAGAAAUGUAGUUGACGAGAAGAAGGUUUAUGGAAUUUUCGGUGGAUGCCUCCAAA [G38A G41A C50G C61U], the “self-cleavage kobs at 2500 uM GlcN6P” value was below 1e-05 s⁻¹.

In the case of AUAAAUGCGCCAGAACUACAGAAAUGUAGUUGACGAGGAGGAGGGUUUUCGAAUUUUCGGCGGAUGCCUCCAAA [A6U U45G A48U], the “self-cleavage kobs at 2500 uM GlcN6P” value is below 1e-05 s⁻¹.

AUAAAAGCGCCAGAACUACAGAAAUGUAGUUGACGGGGAUGAGGCUUAUCGAAUUUUCGGCGGAUGUCUCCAAA [A36G G40U U45C C67U]: the “self-cleavage kobs at 2500 uM GlcN6P” value is below 1e-05 s⁻¹.

As for AUAAAAGCGCCAGAAGUACAGAAAUGUAGUUGACGAGGAGGAGGUUUAUAGAAUUUUCGGCGGAUGCCUACAAA [C16G C50A C70A], the “self-cleavage kobs at 2500 uM GlcN6P” value is 8.7e-05 ± 2.4e-05 s⁻¹.

With AUAAAAGCGCCAGGACUACAGAAAUGUAGUUGACGCGGAGGAGGUUUAUCGAACUUUCGGCGGAUGCCUCCAAA [A14G A36C U54C], the “self-cleavage kobs at 2500 uM GlcN6P” value is below 1e-05 s⁻¹.

Take AUAAAAGGGCCAGAACUACAGAAAUGUAGUUGACGAGGAGGCGGCUUAUCGAAUUUUCGGCGGAUGCCUCGAAA [C8G A42C U45C C71G]: the “self-cleavage kobs at 2500 uM GlcN6P” value is below 1e-05 s⁻¹.

The variants in the next data set derive from B1. Briefly: self-cleavage kobs at 10000 uM GlcN6P; higher = faster cleavage; RNA array. The conditions noted are these: with glucosamine-6-phosphate. The essentials: as §1
With AUAAAAGCGCUAGAACUACAGAAAUGUAAUUGACGAGGAGGAGGUUUAUCGAAUUUUCGGCGGAUGCCUACAAA [C11U G29A C70A], the “self-cleavage kobs at 10000 uM GlcN6P” value stood at 5.6e-05 ± 1.8e-05 s⁻¹.

With AUAAAAUCGCCAGAACUACAGAAAUGUAGUUGACGAGGAGGAGGUUUAUCGAAUUGUUGGCGGAUGCCUCCAAA [G7U U56G C58U], the “self-cleavage kobs at 10000 uM GlcN6P” value was below 1e-05 s⁻¹.

For the variant AUAAAAGGGCCAGAACUACAGAAAUGUAGUUGACGAGGAGGCGGCUUAUCGAAUUUUCGGCGGAUGCCUCGAAA [C8G A42C U45C C71G], the “self-cleavage kobs at 10000 uM GlcN6P” value was below 1e-05 s⁻¹.
